Measurements from the supplement of paper PMC10219994.
± gives the standard deviation of the averaged measurements.

B1: library; a variant is named by its letters at N, in order (parent)
chain: GAGACCGCAACTGAAAAGTTGTGGNNNNNATAGTGAGTCGCTGCCTGCAAAGACACAACT

Variants of: B1
Test: ligation selection enrichment (abundance after / before one-round selection) (fold); higher = more template-directed ligation activity
Conditions: with T7Psub CACGGAUGCUAAUACGACUCACUAUA; MgCl2 25 mM; 42 °C; 4 h; pH 8.5
How it was run: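 RNA ligase library with five randomized core positions (0.75 μM, T7-transcribed) was reacted with RNA substrate (6 μM) in 50 mM EPPS pH 8.5, 25 mM MgCl2 at 42 °C for 4 h, in two independent experiments. Ligated products were PAGE-purified, reverse transcribed, barcoded by PCR and MiSeq-sequenced. Reads with quality score ≥30 at all randomized positions were counted. Enrichment was abundance after ligation divided by abundance before ligation.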
With ATTTG the ligation selection enrichment was 4.54 ± 1.9.
ATTTA gave a ligation selection enrichment of 0.445 ± 0.1.
ATTTC gave a ligation selection enrichment of 0.201 ± 0.0059.
ATTTT showed a ligation selection enrichment of 0.4707 ± 0.0023.
Work on TTTCC yielded a ligation selection enrichment of 0.258 ± 0.0071.
Work on TTTCT yielded a ligation selection enrichment of 0.249 ± 0.052.
Variant TTTCG has a ligation selection enrichment of 0.632 ± 0.068.
Variant TTTGT has a ligation selection enrichment of 0.164 ± 0.11.
Variant TTTGC has a ligation selection enrichment of 0.319 ± 0.085.
In the case of TTTGA, the ligation selection enrichment is reported as 0.78 ± 0.039.
TTTGG gave a ligation selection enrichment of 0.466 ± 0.024.
ATTGT showed a ligation selection enrichment of 0.543 ± 0.093.
ATTGA was tested, and the ligation selection enrichment was 6.7 ± 0.45.
In the case of ATTGG, the ligation selection enrichment is reported as 0.805 ± 0.035.
With ATTGC the ligation selection enrichment was 0.765 ± 0.2.
With CTTTC the ligation selection enrichment was 0.2049 ± 0.00081.
CTTTT showed a ligation selection enrichment of 0.63109 ± 0.00025.
Variant CTTTG has a ligation selection enrichment of 1.41 ± 0.7.
CTTTA was tested, and the ligation selection enrichment was 0.398 ± 0.12.
Variant CTTCT has a ligation selection enrichment of 0.681 ± 0.22.
In the case of CTTCG, the ligation selection enrichment is reported as 1.47 ± 0.55.
For TTTTG, the ligation selection enrichment was 1.05 ± 0.27.
TTTTT showed a ligation selection enrichment of 0.314 ± 0.091.
TTTTA was tested, and the ligation selection enrichment was 0.205 ± 0.0097.
TTTTC showed a ligation selection enrichment of 0.167 ± 0.027.
With ATTCG the ligation selection enrichment was 3.01 ± 0.51.
ATTCT was tested, and the ligation selection enrichment was 0.471 ± 0.21.
Work on ATTCC yielded a ligation selection enrichment of 0.246 ± 0.02.
CTTGG was tested, and the ligation selection enrichment was 0.278 ± 0.035.
Work on CTTGA yielded a ligation selection enrichment of 2.2 ± 0.37.
CTTGT gave a ligation selection enrichment of 0.413 ± 0.078.
CTTGC showed a ligation selection enrichment of 0.446 ± 0.26.
With GTTGT the ligation selection enrichment was 0.353 ± 0.054.
Work on GTTGA yielded a ligation selection enrichment of 5.22 ± 0.32.
With GTTGC the ligation selection enrichment was 0.769 ± 0.034.
Variant GTTGG has a ligation selection enrichment of 0.739 ± 0.059.
GTTCG was tested, and the ligation selection enrichment was 2.43 ± 0.41.
Work on GTTCT yielded a ligation selection enrichment of 0.587 ± 0.17.
For GTTTT, the ligation selection enrichment was 0.277 ± 0.048.
In the case of GTTTC, the ligation selection enrichment is reported as 0.169 ± 0.068.
GTTTA was tested, and the ligation selection enrichment was 0.446 ± 0.026.
GTTTG showed a ligation selection enrichment of 2.05 ± 0.47.
